According to patent US20190248902A1 (published 2019):

T1: Rat ASGR-1 (rat, UniProt P02706 1-284)
T1 construct: Expressed on HEK 293 cells or as membrane prep on beads; cDNA GenBank NM_012503
T1 sequence: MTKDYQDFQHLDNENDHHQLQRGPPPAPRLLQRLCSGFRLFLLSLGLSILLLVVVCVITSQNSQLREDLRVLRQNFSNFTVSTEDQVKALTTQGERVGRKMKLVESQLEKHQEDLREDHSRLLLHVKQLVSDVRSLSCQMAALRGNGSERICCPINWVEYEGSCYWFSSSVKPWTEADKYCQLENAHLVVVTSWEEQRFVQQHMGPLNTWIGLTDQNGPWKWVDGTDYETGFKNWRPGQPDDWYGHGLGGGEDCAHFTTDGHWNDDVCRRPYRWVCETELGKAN

T2: Dog ASGR-1 (dog)
T2 construct: Expressed on HEK 293 cells or as membrane prep on beads; cDNA GenBank XM_546579
T2 chain: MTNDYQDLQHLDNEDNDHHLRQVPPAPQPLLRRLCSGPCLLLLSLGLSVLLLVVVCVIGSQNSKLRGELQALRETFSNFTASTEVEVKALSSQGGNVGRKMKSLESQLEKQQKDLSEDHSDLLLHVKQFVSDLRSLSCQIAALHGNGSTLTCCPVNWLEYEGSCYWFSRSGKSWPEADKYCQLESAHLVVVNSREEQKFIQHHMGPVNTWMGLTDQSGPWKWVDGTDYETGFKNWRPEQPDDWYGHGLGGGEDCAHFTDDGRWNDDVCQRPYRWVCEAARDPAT

T3: Human ASGR-2 (human, UniProt P07307 1-311)
T3 construct: Expressed on HEK 293 cells; cDNA GenBank NM_080913.3; also called huASGR-2; hASGR-2
T3 sequence: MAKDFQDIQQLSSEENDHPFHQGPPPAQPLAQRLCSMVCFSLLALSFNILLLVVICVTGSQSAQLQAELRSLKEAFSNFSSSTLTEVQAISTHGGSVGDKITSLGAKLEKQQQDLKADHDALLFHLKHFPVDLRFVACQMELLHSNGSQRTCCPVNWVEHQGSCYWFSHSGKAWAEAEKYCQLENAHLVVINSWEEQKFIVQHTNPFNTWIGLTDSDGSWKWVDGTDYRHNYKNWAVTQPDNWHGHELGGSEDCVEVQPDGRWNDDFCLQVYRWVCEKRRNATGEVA

B1: 6G7 (antibody, V domains shown)
VH: QVQLVESGGGVVQPGRSLRLSCAASGFTFSSYGMHWVRQTPGKGLEWVAIISYVGKNKYYADSVKGRFTISRDNSKNTLYLQMNSLRAEDTAVYYCARRGNSYGGYGMDVWGQGTTVTVSS
VL: DIQMTQSPSSRSASVGDRVTITCQASQDISNYLNWCQQKPGKALKLLIYDASTLETGVPSRFSGSGSGTDFTFTISSVQPEDIATYYCQQYDNVPITFGQGTRLEIK
notes: Tested as hybridoma supernatant at normalized concentration
B2: 75G3 (antibody, V domains shown)
VH: QVQLQQWGAGLLKPSETLSLTCAVYGGSLSGSYWSWIRQPPGKGLEWIGEINLSGSTNYNPSLKSRVTISVDTSKSQFSLTLRSVTAADTAVYYCARDYGGLDYWGQGTLVTVSS
VL: EIVLTQSPGTLSLSPGERATLSCRARQNVDSSYLAWYQQKPGQAPRLLIYGASSRATGIPDRFSGSGSGTDFTLTISRLEPEDFAVFYCQQYERSPWTFGQGTKVEIK
notes: as for B1
B3: 202A3 (antibody, V domains shown)
VH: QVQLEQSGAEVKKPGASVKVSCKASGYTFTSYDINWVRQATGQGLEWLGWMNPKRGNTGYAQKFQGRVTMTRNTSISTAHMELSSLRSEDTAVYYCARGRYSREDYYYYYDMDVWGQGTTVTVSS
VL: DIQMSQSPSSLSASVGDRVTITCRASQGIRNDLGWYQQKPGKAPKRLICAASRLQSGVPSRFSGSGSGTEFTLTISSLQPEDFAIYYCLQHHDYPFTFGPGTKVDIK
notes: as for B1
B4: 193E7 (antibody, V domains shown)
VH: QVQLQQWGAGLLKPSETLSLTCAVYGGSFSGYFWTWIRQPPGKGLEWIGEINHSGSTNYNPSLKSRVTISVDTSKNQFSLKLSSVTAADTAVYYCARDYGADYWGQGTLVAVSA
VL: DIQMTQSPSSLSASVGDRVTITCRASQGIRNDLGWYQQKPGKAPKRLIYSASSLQRGVPSRFSGSGSGTEFTLTISSLQPEDFATYYCLQHKRYPLTFGGGTKVEIK
notes: as for B1
B5: 218G4 (antibody, V domains shown)
VH: QVQLVESGGGVVQPGRSLRLSCAASGFTFSSYGLHWVRQAPGKGLEWVAVIWYDGSNKYYADSVKGRFTISRDNSKNTLYLQMNSLRVEDTAVYYCANWYYYYYGMDVWGQGTTVTVSS
VL: QSVLTQPPSVSAAPGQKVTISCSGSSSNIGNNYVSWYQQLPGTAPKLLLYDSNKRPSGIPARFSGSKSGTSATLGITGLQTGDEADYYCGTWDSSLNTVVFGGGTKLTVL
notes: as for B1
B6: 190F8 (antibody, V domains shown)
VH: QVQLVESGGGVVQPGRSLRLSCAASGFTFSTYGMHWVRQAPGKGLEWVAVIWYDGSNKNYADSVKGRFTISRDNSKNTLYLQMNSLRAEDTAVYYCARDQGVGYDGLDVWGQGTTVTVSS
VL: DIQMTQSPSSLSASVGDRVTITCRTSQGIGNYLAWFQQKPGKAPKSLLYKASSLQSGVPSKFSGSGSGTDFTLTISSLQPEDFATYYCQQYMTYPLTFGGGTKVEIK
notes: as for B1
B7: 197G3 (antibody, V domains shown)
VH: QVQLVESGGGVVQPGRSLRLSCVASGFTFSSHGMHWVRQAPGKGLEWVAVIWYDGSNKNYADSVKGRFTISRDNSKNTLYLQMNSLRAEDTAVYYCARDPSVGYDGMDVWGQGTTVTVSS
VL: DIQMTQSPSSLSASVGDRVTITCRASQGIGNHLAWFQQKPGKAPKSLIYAASSLQSGVPSKFSGSRSGTDFSLTISSLQPEDFATYYCQQYSNYPVTFGPGTKVDIK
notes: as for B1
B8: 194C1 (antibody, V domains shown)
VH: QVQLVESGGGVVQPGRSLRLSCAASGFTFSSYGMHWVRQAPGKGLEWVAVIWYDGSNEHYADSVKGRFTISRDNSKNTLYLQMNSLRAEDTAVYYCARNRGVGYYGLDVWGQGTTVTVSS
VL: DIQMTQSPSSLSASVGDRVTITCRASQGISNYLAWFQQKPGKAPKSLIYAASSLQSGVPSKFSGSGSGTDFTLTISSLQPEDFATYYCLHYLTYPLTFGGGTKVEIK
notes: as for B1
B9: 191G1 (antibody, V domains shown)
VH: QVQLVESGGGVVQPGRSLRLSCAASGFTFSSYGMHWVRQAPGKGLEWVAVIWYDGSNEHYADSVKGRFTISRDNSKNTLYLQMNSLRAEDTAVYYCARDRGVGYYGLDVWGQGTTVTVSS
VL: DIQMTQSPSSLSASVGDRVTITCRASQGISNYLAWFQQKPGKAPKSLIYAASSLQSGVPSKFSGSGSGTDFTLTISSLQPEDFATYYCQHYLTYPLTFGGGTKVEIK
notes: as for B1
B10: 191G10 (antibody, V domains shown)
VH: QVQLVESGGGVVQPGRSLRLSCAASGFTFSSYGMHWVRQAPGKGLEWVAVIWYDGSNKNYADSVKGRFTISRDNSKNTLYLQMNSLRAEDTAVYYCARDQGVGYDGLDVWGQGTTVTVSS
VL: DIQMTQSPSSLSASVGDRVTITCRTSQGIGKYLAWFQQKPGKAPKSLLYKVSSLQSGVPSKFSGSGSGTDFTLTISSLQPEDFATYYCQQYMTYPLTFGGGTKVEIK
notes: as for B1
B11: 198G3 (antibody, V domains shown)
VH: QVQLVESGGGVVQPGRSLKLSCAASGFTFSTYGMHWVRQAPGKGLEWVAVIWYDGTNKNYADSVKGRFTISRDNSKNTLCLQMNSLRAEDTAVYYCARDQGVGYDGLDVWGQGTTVTVSS
VL: DIQMAQSPSSLSASVGDRVTITCRTSQGIGKYLAWFQQKPGKAPKSLLYKASSLQGGVPSKFSGSGSGTDFTLTISSLQPEDFATYYCQQYMTYPLTFGGGTKVEIK
notes: as for B1
B12: 194C10 (antibody, V domains shown)
VH: QVQLQQWGAGLLKPSETLSLTCAVSGGSFRYYYWSWIRQPPGKGLEWFGEINHSGSTNYNPSLKSRVTISIDTSKNQFSLKLRSVTAADTAVYYCARDYGAFDIWGQGTMVTVSS
VL: EIVLTQSPGTLSLSPGERATLSCRASPSVNSGYLAWYQQKPGQTPRLLIFGASSRATGIPDRFSASGSGADFTLTISRLEPEDFAVYFCQQYESSPWTFGQGTKVEIK
notes: as for B1
B13: 176H4 (antibody, V domains shown)
VH: QVQLVESGGGVVQPGRSLRLSCAASGFTFSSYGMHWVRQAPGKGLEWVAIIWYDGSYKYYADSVKGRFTISRDNSKNTLYLQMSSLRAEDTAVYYCARDAHDFWSGYFAYWGQGALVTVSS
VL: DIVMTQTPLSLSVTPGQPASISCKSSQSLLHGDGKTYLYWYLQKPGQPPQLLIYEVSNRFSGVPDRFSGSGSGTDFTLKISRVEAEDVGIYYCMQSIQIPWTFGQGTRVEIK
notes: as for B1
B14: 54E9 (antibody, V domains shown)
VH: QVQLVQSGAEVKKPGASVKVSCKASGYTFNSYGISWVRLAPGQGLEWMGWISAYNGNTKNAQKLQGRVTMTTDTSTSTAYMELRSLRSDDTAVYYCARHDFWSGYYKGMDVWGQGTTVTVSS
VL: not shown
notes: as for B1

Experiments:
Rat ASGR-1 = molecular target: T1, Rat ASGR-1; test: FACS on transfected HEK 293 cells or membrane preps on beads; Y = signal at least 2x irrelevant IgG
How it was run: (§1)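 Antibodies at normalized concentrations bound 1 h at 4° C to HEK 293 cells expressing each antigen, then Alexa Fluor 647 anti-Fc plus 7-AAD 15 min at 4° C, flow cytometry; empty-vector cells as negative. Alternatively, species ASGR-1 membrane preps on streptavidin beads, antibody 1 h RT, Alexa Fluor 488 anti-Fc; FACS buffer with 1 mM CaCl2 throughout.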

Dog ASGR-1 = molecular target: T2, Dog ASGR-1; test: as above
How it was run: as §1

Human ASGR-2 = molecular target: T3, Human ASGR-2; test: FACS on transfected HEK 293 cells; binding = signal at least 2x irrelevant IgG
Experimental: Human ASGR-1-specific, ligand competing antibody samples were tested for binding to ASGR-1 from other species (cynomologus monkey ASGR-1, mouse ASGR-1, rat ASGR-1, dog ASGR-1, and pig ASGR-1) as well as to human ASGR-2 in FACS binding assays at normalized antibody concentrations. For cell-based assays, HEK 293 cells expressing the appropriate antigen of interest were mixed with antibody sample or controls, incubated for 1 hour at 4° C., and then washed twice. Cells with bound antibody were then incubated with Alexa Fluor® 647 IgG Fc fragment-specific detection antibody and 7-AAD viability stain for 15 minutes at 4° C., washed once and resuspended in FACS buffer. Samples were analyzed using a BD Accuri™ Flow Cytometer and an Intellicyt HyperCyt Autosampler. As a negative control, supernatants and controls were also screened against HEK 293 cells transfected with empty parental vector. […] For membrane-prep binding assays, ASGR-1 species specific membrane preps were used to coat LumAvidin® microspheres (beads) and tested for binding to selected hybridoma supernatants or controls. Briefly, ASGR-1 species specific membrane preps were incubated with streptavidin-coated LumAvidin® beads for 45 minutes in the dark at room temperature and washed twice. Beads were resuspeneded in FACS buffer containing Stabilguard®. Antigen-bound beads were then incubated with normalized antibody sample for 1 hour in the dark at room temperature, washed twice, incubated with Alexa Fluor® 488 IgG Fc fragment-specific detection antibody for 15 minutes in the dark at room temperature, washed once and finally resuspended in FACS buffer. Samples were analyzed using an Intellicyt iQue™ Screener Platform. FACS buffer supplemented with 1 mM Calcium Chloride was used in all steps. As a negative control, supernatants and controls were also screened against a non-ASGR-1 antigen membrane prep coated on the LumAvidin® beads.

binding result (Rat ASGR-1) | binding result (Dog ASGR-1) | binding result (Human ASGR-2) | Binder
binds |  |  | B1
 | binds | no binding | B2
 | binds | no binding | B3
 | binds | no binding | B4
 | binds | no binding | B5
 | binds | no binding | B6
 | binds | no binding | B7
 | binds | no binding | B8
 | binds | no binding | B9
 | binds | no binding | B10
 | binds | no binding | B11
 | binds | no binding | B12
 | binds | no binding | B13
 | binds | no binding | B14
